The term Km denotes the concentration of substrate that gives half-maximal velocity.

This passage reports Km results from PMC7476758, “Underground isoleucine biosynthesis pathways in E. coli” (eLife, 2020).

The test system of series [1] is CC(=O)SCCNC(=O)CCNC(=O)[C@H](O)C(C)(C)COP(=O)(O)OP(=O)(O)OC[C@H]1O[C@@H](n2cnc3c(N)ncnc32)[C@H](O)[C@@H]1OP(=O)(O)O. Briefly: Michaelis-Menten kinetics of purified mutant enzyme, DTNB assay of released CoA (KM). The format is biochemical, Escherichia coli. The note with it: mutation far from the active site.
Series [2] relates to N[C@@H](CO)C(=O)O. The series can be described thus: Michaelis-Menten kinetics of purified mutant enzyme, DTNB assay (KM). The format is biochemical, Escherichia coli. To be noted: mutation far from the active site.

Consider “serine acetyltransferase (CysE) (Escherichia coli K-12; A33T)”, for which the Km is given as 5.0 ± 2.0 mM in series [1] and 0.5 ± 0.2 mM in series [2].
